{"source": "paper PMC6288486", "system": "His9", "test": "UV-vis", "details": "25 °C; none; pH adjusted with NaOH (1, 0.1, 0.01 M) and TFA (0.1 and 1% v/v in water); Mn(III) resting state, 15 µM. Transition from bis-aquo (species 1) to His-aquo (species 2) axial coordination. Helical fold stabilised by 40% TFE.", "data": [{"substance": "Mn-Mimochrome VI*a (Mn-MC6*a) (synthetic construct)", "values": [{"measurement": "pKa", "value": 4.0}]}]}
